Data set [1] relates to IgG, polyclonal (Mus musculus). Description: FP. Conditions: 10 nM DNA, 1 uM IgG, PBS pH 7.0, 45 min.
Data set [2] concerns IgG Fab2 fragment (Homo sapiens). Kind of data set: filter. The note with it: 37.5 mM NaCl, 3.75 mM sodium citrate, pH 6.0.
The subject of data set [3] is IgG, polyclonal (Mus musculus). Description: filter. The note with it: 37.5 mM NaCl, 3.75 mM sodium citrate, pH 6.0.
Data set [4] relates to IgG3, monoclonal (Homo sapiens). Description: filter. The note with it: 37.5 mM NaCl, 3.75 mM Na citrate, pH 6.0.
The test system of data set [5] is IgG1, monoclonal (Homo sapiens). Kind of data set: filter. The note with it: 37.5 mM NaCl, 3.75 mM sodium citrate, pH 6.0.
Data set [6] has as its system IgG Fc fragment (Homo sapiens). Description: filter. Conditions: 37.5 mM NaCl, 3.75 mM sodium citrate, pH 6.0.
For data set [7], the system named is IgG Fab2 fragment (Mus musculus). Kind of data set: filter. Conditions: 37.5 mM NaCl, 3.75 mM sodium citrate, pH 6.0.
In data set [8] the test system is IgG, polyclonal (ChromPure) (Homo sapiens). Description: filter. The note with it: ultrafiltration, 41 mM Na+, pH 6.
Data set [9] concerns IgM, monoclonal (Homo sapiens). Kind of data set: filter. The note with it: 37.5 mM NaCl, 3.75 mM sodium citrate, pH 6.0.
Data set [10] relates to IgG2, monoclonal (Homo sapiens). Kind of data set: filter. The note with it: 37.5 mM NaCl, 3.75 mM sodium citrate, pH 6.0.
Data set [11] concerns IgG4, monoclonal (Homo sapiens). Description: filter. Conditions: 37.5 mM NaCl, 3.75 mM Na citrate, pH 6.0.
Data set [12] concerns IgA, monoclonal (Homo sapiens). Description: filter. Conditions: 37.5 mM NaCl, 3.75 mM sodium citrate, pH 6.0.
[13] abbreviates: hexaethylene glycol (iSp18) linkers as both loops.

For 27 sequences, binding signal (% polarization change), Ka (log10 Ka (M-1)) and Ka results are on record in US20100233678.

For “AGGCCGCGCCCCCCGCGCCCACCGCCCCGGTGCC [RAD29]”, the binding signal (% polarization change) in data set [1] was determined as 19.
Regarding CCCTCCCTGGGCTTTTTTTGATTTTTCTTAA [RAD4], the Ka (log10 Ka (M-1)) came out at 6.89 in [2]; 7.71 in data set [3]; 7.52 in [5]; 5.26 in data set [6]; 7.09 in data set [7]; 8.13 in [8] (pH 5 8.48, pH 7 7.10, pH 8 7.02). Also, the values for the Ka (log10 Ka (M-1)) in [9], in data set [10] and in data set [12] were 6.89, 7.67 and 7.66, respectively. Further, the values for the Ka in data set [4] (control oligo) and in data set [11] (control oligo) were 6.66 log10 M-1 and 7.13 log10 M-1, respectively.
In the case of CCTCTTCCTTCTCCGGAGAAG [RAD1], the Ka in [4] (two hexaethylene glycol (iSp18) linkers as loops [iSp18 (hexaethylene glycol) linkers left out between 7-8 and 14-15], ultrafiltration, Picogreen) is 6.17 log10 M-1; in data set [11] (two hexaethylene glycol (iSp18) linkers as loops [iSp18 (hexaethylene glycol) linkers left out between 7-8 and 14-15]), 6.37 log10 M-1.
As for CCTCTTCHEGCTTCTCCHEGGGAGAAG [RAD1], the Ka (log10 Ka (M-1)) was found to be 5.82 in [2] (setting [13]); 6.6 in [3] (setting [13]); 6.38 in data set [5] (setting [13]); 5.8 in data set [6] (setting [13]); 6.38 in data set [7] (setting [13]); 6.51 in data set [8] (hexaethylene glycol (iSp18) linkers as both loops, pH 5 7.45, pH 7 6.49, pH 8 6.30). Further, the values for the Ka (log10 Ka (M-1)) in [9] (setting [13]), in data set [10] (setting [13]) and in data set [12] (setting [13]) were 6.32, 6.51 and 6.37, respectively.
As for CCTCTTCTTTTTCTTCTC [RAD20], the Ka (log10 Ka (M-1)) in [2] was determined as 6.9; in data set [3], 8.3; in [5], 7.34; in data set [6], 5.96; in data set [7], 7.41; in data set [8] (pH 5 8.11, pH 7 7.40, pH 8 6.64), 7.98. In addition, the values for the Ka (log10 Ka (M-1)) in data set [9], in data set [10] and in data set [12] were 7.02, 7.85 and 7.53, respectively. Besides, the Ka was 6.84 log10 M-1 in data set [4] and 7.67 log10 M-1 in [11].
Turning to CCTCTTCTTTTTCTTCTCCTTTTTGGAGAAG [RAD2], the Ka (log10 Ka (M-1)) in data set [2] turned out to be 6.45; in [3], 7.49; in [5], 7.04; in data set [6] it was 5.86; in data set [7], 6.71; in [8] (pH 5 8.74, pH 7 6.96, pH 8 6.57), 7.61. The Ka (log10 Ka (M-1)) in [9] was 6.73; in data set [10], 7.06; in [12] it was 6.9. Further, the Ka in [4] was 6.64 log10 M-1; in [11], 7.08 log10 M-1.
In the case of CCTTCCTTTGGAAGGTTG [RAD23], the Ka (log10 Ka (M-1)) stood at 5.64 in data set [2]; 6.77 in data set [3]; 6.14 in [5]; 6.33 in [7]; 6.88 in data set [8] (pH 5 7.37, pH 7 6.31, pH 8 6.21); 6.08 in [9]. Also, the Ka (log10 Ka (M-1)) in [10] was determined as 6.86; in data set [12], 6.38. Besides, the values for the Ka in data set [4] and in data set [11] were 5.62 log10 M-1 and 5.97 log10 M-1, respectively.
With CGCGAAAACGCG [RAD22], the Ka (log10 Ka (M-1)) in data set [8] (pH 5 5.95, pH 7 6.04, pH 8 5.97) is 6.25.
CTCTCTCTTTTTCTCTCTCTTTTTGAGAGAG [RAD9]: the Ka (log10 Ka (M-1)) stood at 6.44 in data set [2]; 7.46 in data set [3]; 7.05 in [5]; 5.87 in [6]; 6.75 in data set [7]; 7.74 in [8] (pH 5 8.67, pH 7 7.04, pH 8 6.94). The Ka (log10 Ka (M-1)) came to 6.79 in [9], 7.05 in [10] and 6.95 in data set [12]. The results for the Ka in data set [4] and in data set [11] were 6.62 log10 M-1 and 7.06 log10 M-1, respectively.
Regarding GAGAGAGTTTTTGAGAGAGTTTTTCTCTCTC [RAD7], the Ka (log10 Ka (M-1)) in data set [2] was 6.68; in [3] it was 7.69; in data set [5], 7.3; in data set [6] it was 5.99; in [7], 6.97; in [8] (pH 5 8.51, pH 7 6.97, pH 8 6.79), 8.04. The Ka (log10 Ka (M-1)) was determined as 6.89 in [9], 7.25 in data set [10] and 7.33 in [12]. In addition, the results for the Ka in data set [4] and in [11] were 6.74 log10 M-1 and 7.16 log10 M-1, respectively.
Consider GAGTGAGTCTCAGTTAGTTTCGATTGATTCT [RAD5], for which the Ka (log10 Ka (M-1)) in [8] (pH 5 8.75, pH 7 7.11, pH 8 6.81) turned out to be 8.03.
As for GGAAAGGTTTTTGGAAAGGTTTTTCCTTTCC [RAD6], the Ka (log10 Ka (M-1)) in data set [8] (pH 5 8.50, pH 7 6.86, pH 8 6.74) worked out at 7.96.
For GGAGGTGCTCCGAAAGGAACTCC [RAD30], the binding signal (% polarization change) in [1] was found to be 15.
As for GGTTGGTTTGGTTGG [RAD13 (TTT-aptamer)], the Ka (log10 Ka (M-1)) in data set [8] (pH 5 7.55, pH 7 6.46, pH 8 6.53) worked out at 6.96.
Take TCCCTTTCCCTTTCCCTTTCCC [RAD28]: the binding signal (% polarization change) in data set [1] was 22.
The same measure, in the same setting: with TCCTCTTCTTTTTCTTCTC [RAD24] the figure was 21; with TCCTTTCCTTTCCTTTCCT [RAD27], 22; with TCTCTCTCTCTCTCTCTCT [RAD26], 38.
On to TGGAGTCTGCGCGAGTCAGCGCTCAAGATC [RAD8], for which the Ka (log10 Ka (M-1)) in [8] (pH 5 8.41, pH 7 6.86, pH 8 6.84) was 7.85.
As for TGGGCCGGTAACGGATTACCGTAAGGTCCC [RAD11], the Ka (log10 Ka (M-1)) in data set [8] (pH 5 8.31, pH 7 6.85, pH 8 6.85) was 7.64.
As for TGGGCCGGTAACGGGTTACCGTAAGGTCCC [RAD10], the Ka (log10 Ka (M-1)) in data set [2] was 6.43; in data set [3], 7.53; in data set [5] it was 7.04; in data set [6] it was 5.92; in data set [7], 6.76; in data set [8] (pH 5 8.41, pH 7 6.81, pH 8 6.72) it was 7.65. Besides, the Ka (log10 Ka (M-1)) in data set [9] turned out to be 6.7; in [10], 7.01; in data set [12] it was 6.92. For the same sequence, the figures for the Ka in data set [4] and in data set [11] were 6.62 log10 M-1 and 7 log10 M-1, respectively.
As for TGGTTGGTTTTTGGAAGGATTTTTTCCTTCC [RAD3], the Ka (log10 Ka (M-1)) is 6.97 in data set [2]; 7.69 in data set [3]; 7.45 in data set [5]; 6.34 in [6]; 7.09 in data set [7]; 7.79 in data set [8] (pH 5 8.60, pH 7 6.86, pH 8 6.76). The Ka (log10 Ka (M-1)) was 6.71 in data set [9], 7.36 in [10] and 7.38 in data set [12]. For the same sequence, the Ka in data set [4] was 6.69 log10 M-1; in data set [11], 7.2 log10 M-1.
TTCCTTCCTTCCTTCCTTC [RAD25]: the binding signal (% polarization change) in [1] was found to be 22.
Consider TTTGGTTGGTTTGGTTGG [RAD19], for which the Ka (log10 Ka (M-1)) in data set [8] (inosine at I positions [inosine at 4,14], pH 5 7.82, pH 7 6.50, pH 8 6.04) is 7.14.
Turning to TTTTCGCGCGTACGCGCGCGAA [RAD15], the Ka (log10 Ka (M-1)) was 5.33 in data set [2]; 6.35 in [3]; 6.39 in data set [5]; 6.21 in [7]; 7 in data set [8] (pH 5 7.65, pH 7 6.33, pH 8 6.19); 6.19 in data set [9]. Moreover, the Ka (log10 Ka (M-1)) in [10] was found to be 6.18; in data set [12], 6.23. Besides, the Ka was 6.22 log10 M-1 in data set [4] and 6.13 log10 M-1 in [11].
For TTTTCGCGCGTTAACGCGCGAA [RAD16], the Ka (log10 Ka (M-1)) is 6.23 in [2]; 7.07 in [3]; 6.87 in data set [5]; 6.11 in data set [7]; 7.8 in data set [8] (pH 5 8.22, pH 7 7.25, pH 8 6.79); 6.26 in data set [9]. The results for the Ka (log10 Ka (M-1)) in data set [10] and in data set [12] were 6.11 and 6.46, respectively. Further, the Ka in data set [4] was 6.31 log10 M-1; in data set [11], 6.54 log10 M-1.
Turning to TTTTCGCGTGTGTGCGCGAA [RAD12], in data set [8] (pH 5 7.61, pH 7 6.37, pH 8 5.74), the Ka (log10 Ka (M-1)) stood at 6.98.
